Experimental findings from article PMC8835810 are described below.

The assay concerns the target E117K mutant of rabbit muscle pyruvate kinase (rabbit). As to the kind of experiment: crystal structure; E117K mutant at 7 mg/mL in 50 mM Tris pH 7.0 with 1.0 mM ATP, 1.0 mM MgCl2, 0.2 mM oxalate; hanging drop; 0.2 M magnesium acetate, 0.1 M sodium cacodylate pH 6.5, 18% w/v PEG 8000; space group P212121, four copies in the asymmetric unit.

Broadly, the stoichiometry N is the number of molecules, sites or subunits per partner or assembly.

With “E117K mutant of rabbit muscle pyruvate kinase (enzyme)”, the stoichiometry N came to 4.
